From the supplement of paper PMC10567573
± gives the standard deviation.

Test: protein stability index of a GFP-peptide fusion (GPS, HEK-293T) (PSI 1-6); higher = more stable
[1] = treatment: DMSO, c terminus: a fixed tail appended
[2] = treatment: MLN4924 1 uM, 8 h, c terminus: a fixed tail appended
[3] = treatment: DMSO, c terminus: native
[4] = treatment: MLN4924 1 uM, 8 h, c terminus: native
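Also: 24-mer peptide tiles fused after GFP, lentivirally expressed, FACS-sorted into six equal bins by GFP/DsRed ratio, decoded by Illumina sequencing, PSI is the read-weighted mean bin number.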

PVTRNERHSYQVYRQPIPVQELVL [NET1]
protein stability index [1]: 2.79 ± 0.23
protein stability index [2]: 2.88 ± 0.23

DKLEYLDEKQRDPRIEASKVLLCH [NET1]
protein stability index [1]: 4.09 ± 0.22
protein stability index [2]: 4.08 ± 0.19

DEEQQVLLSRLEEEEQDILQRLRE [TRIM39]
protein stability index [1]: 5.27 ± 0.098
protein stability index [2]: 5.28 ± 0.33

ESIVPIPSSNEEIRLVDDAFGKIC [INTS4]
protein stability index [1]: 4.05 ± 0.35
protein stability index [2]: 4.29 ± 0.32

RYQQSKAAALKCQLCEKAPKEATV [TRIM9]
protein stability index [1]: 3.85 ± 0.28
protein stability index [2]: 4.01 ± 0.14

SSGRELGRPKELQPKKLHLCPLCG [ZNF263]
protein stability index [1]: 3.53 ± 0.2
protein stability index [2]: 3.99 ± 0.58

KMAAVSKASGRFGLLQGTSAETSG [SEPHS2]
protein stability index [1]: 3.94 ± 0.15
protein stability index [2]: 3.88 ± 0.25

KKRYEEEINKRTAAENEFVLLKKD [KRT71]
protein stability index [1]: 5.07 ± 0.2
protein stability index [2]: 4.99 ± 0.27

CLLQPPSCPNGMSAENGLEKSGFS [DLC1]
protein stability index [1]: 3.99 ± 0.14
protein stability index [2]: 3.44 ± 0.8

QHECVNTDDSYSCHCLKGFTLNPD [MATN2]
protein stability index [1]: 4.04 ± 0.16
protein stability index [2]: 4.15 ± 0.25

NEEETPSCMASLWTAPLVMRTTNL [CDC25A]
protein stability index [1]: 3.22 ± 0.18
protein stability index [2]: 3.3 ± 0.11

VLAARSPVFNAMFEHEMEESKKNR [SPOPL]
protein stability index [1]: 3.73 ± 0.2
protein stability index [2]: 4.27 ± 0.29

VELHYEEGSPRNLGTPTSSTPRPS [C2CD2L]
protein stability index [1]: 4.63 ± 0.48
protein stability index [2]: 4.48 ± 0.32

DTPVQNKRRRSVTPPEEQQEAEEP [CDC25B]
protein stability index [1]: 5.51 ± 0.35
protein stability index [2]: 5.71 ± 0.22

SRQIPAPQGAVLVQREKDLPNYNW [KISS1]
protein stability index [1]: 3.78 ± 0.29
protein stability index [2]: 3.79 ± 0.14

SVDLIKTYKHINEVYYAKKKRRAQ [DYRK1B]
protein stability index [1]: 2.85 ± 0.23
protein stability index [2]: 3.13 ± 0.14

SCSQNLLITQQIIPVLYCMVFIAG [P2RY14]
protein stability index [1]: 3.03 ± 0.58
protein stability index [2]: 2.87 ± 0.73

YGHELLINTLITSGADTAKCGIHS [ANKRD44]
protein stability index [1]: 2.27 ± 0.38
protein stability index [2]: 1.99 ± 0.2

LEVNKPKNRYANVIAYDHSRVLLS [PTPRD]
protein stability index [1]: 2.54 ± 0.31
protein stability index [2]: 2.71 ± 0.21

EGSLQQPKAQSAMSPYLVPDTQAL [SMG5]
protein stability index [1]: 4.39 ± 0.27
protein stability index [2]: 4.5 ± 0.18

GDFAWERVRGLGLPKLYLPTGPRR [CDKN1A]
protein stability index [1]: 2.98 ± 0.32
protein stability index [2]: 3.32 ± 0.4

ERPMYGRDSAYQSITHYRPVSASR [EMD]
protein stability index [1]: 3.81 ± 0.26
protein stability index [2]: 3.76 ± 0.28

LRNIQGLFAPLKLQMEFKAVQQVQ [POMP]
protein stability index [1]: 2.25 ± 0.44
protein stability index [2]: 2.28 ± 0.11

QTKQVYDAVGMLGIEEVTYENCLQ [NLN]
protein stability index [1]: 3.56 ± 0.4
protein stability index [2]: 3.73 ± 0.53

KPSENHPLHNSGLLSLDPVQDKTP [MED27]
protein stability index [1]: 4.984 ± 0.04
protein stability index [2]: 5.02 ± 0.22

NVLGAQLDVEAAHSEILKYFQSVT [STX5]
protein stability index [1]: 2.76 ± 0.25
protein stability index [2]: 2.88 ± 0.33

SIEGTIPFSKPVKVYIMPKPARR [INTS4]
protein stability index [3]: 2.42 ± 0.33
protein stability index [4]: 2.56 ± 0.45

MVLLIMKLDQLDQDIENALSTSSS [DLC1]
protein stability index [1]: 2.69 ± 0.58
protein stability index [2]: 2.49 ± 0.45

LNRPGPAPLSSRKHVLYVEHRHLN [TCF25]
protein stability index [1]: 3.14 ± 0.28
protein stability index [2]: 2.8 ± 0.15

CIHTGLSQYIAVEAAEGRNKNEVF [FBXO3]
protein stability index [1]: 3.38 ± 0.49
protein stability index [2]: 3.48 ± 0.19

LRGGRGGSGGTRGPPSRGGHMDDG [RBMX]
protein stability index [1]: 5.26 ± 0.19
protein stability index [2]: 5.3 ± 0.34

SSSHQKCPQLGGPEASGGLVQWI [PLEKHN1]
protein stability index [3]: 3.17 ± 0.38
protein stability index [4]: 3.47 ± 0.26

DGVPHLILIASRDIAAGEELLYDY [KMT5A]
protein stability index [1]: 1.98 ± 0.31
protein stability index [2]: 2.13 ± 0.099

PSPSTLEPHPRPLLQRELMVPGTR [TNXB]
protein stability index [1]: 4.4 ± 0.24
protein stability index [2]: 4.36 ± 0.59

DKMEAYNIDETCGRHHSQSTEVQA [TEKT4]
protein stability index [1]: 4.91 ± 0.19
protein stability index [2]: 4.9 ± 0.17

APVTFRHHRYDDLVRTLYKVQNEC [CPN1]
protein stability index [1]: 2.62 ± 0.065
protein stability index [2]: 2.83 ± 0.12
